Measured values: the RNAGym collection of RNA variant scans (doi:10.7554/elife.90254)

B1: LINE1-full (parent)
chain: UACGUAGGUGGUUUUCCCCUGAUAGUGCUAAGGGGGCCUGGAAGUUUGGACUGGGCAGAGCUCAACACAGCGUGGCAAAGUGGCUGUGGCUAGACUGCCUCUCUGGAUUCCUCGUCACUCAGCAGGGCAUCUCUGAGAGAAAUGCC

Variants of: B1
Experiment: self-cleavage, relative activity (ratio to wild type); higher = more cleavage; in vitro, sequencing; the parent is a self-cleaving ribozyme

| Variant | self-cleavage |
| --- | --- |
| UACGUAGGUGGUUUUCCCCUGAUAGUGCUAAGGGGGCCUGGAAGUUUGGACUGGGCAGAGCUCAACACAGCGUGGCAAAGUGGCAGUGGCUAGACUGCCUCUCUGGAUUCCUCGUCACUCAGCAGGGCAUCUCUGAGGGAAAUGCC | 0.07 |
| UACGUAGGUGGUUUUCCCCUGAUAGUGCUAAGGGGGCCUGGAAGUUUGGACUGGGCAGAGCUCAACACAGCGUGGCAAAGUGGCAGUGGCUAGACUGCCUCUCUGGAUUCCUCGUCACUCAGCAGGGCAUCUCUGAGUGAAAUGCC | 0.06 |
| UACGUAGGUGGUUUUCCCCUGAUAGUGCUAAGGGGGCCUGGAAGUUUGGACUGGGCAGAGCUCAACACAGCGUGGCAAAGUGGCAGUGGCUAGACUGCCUCUCUGGAUUCCUCGUCACUCAGCAGGGCAUCUCUGAGAGAAAUGCC | 0.09 |
| UACGUAGGUGGUUUUCCCCUGAUAGUGCUAAGGGGGCCUGGAAGUUUGGACUGGGCAGAGCUCAACACAGCGUGGCAAAGUGGCAGUGGCUAGACUGCCUCUCUGGAUUCCUCAUCACUCAGCAGGGCAUCUCUGAGAGAAAUGCC | 0.08 |
| UACGUAGGUGGUUUUCCCCUGAUAGUGCUAAGGGGGCCUGGAAGUUUGGACUGGGCAGAGCUCAACACAGCGUGGCAAAGUGGCAGUGGCUAGACUGCCUCUCUGGAUUCCUCGUCACUCAGCAGGGCGUCUCUGAGAGAAAUGCC | 0.07 |
| UACGUAGGUGGUUUUCCCCUGAUAGUGCUAAGGGGGCCUGGAAGUUUGGACUGGGCAGAGCUCAACACAGCGUGGCAAAGUGGCAGUGGCUAGACUGCCUCUCUGGAUUCCUCGUCACUCAGCAGGGCUUCUCUGAGAGAAAUGCC | 0.12 |
| UACGUAGGUGGUUUUCCCCUGAUAGUGCUAAGGGGGCCUGGAAGUUUGGACUGGGCAGAGCUCAACACAGCGUGGCAAAGUGGCAGUGGCUAGACUGCCUCUCUGGAUUCAUCGUCACUCAGCAGGGCAUCUCUGAGAGAAAUGCC | 0.06 |
| UACGUAGGUGGUUUUCCCCUGAUAGUGCUAAGGGGGCCUGGAAGUUUGGACUGGGCAGAGCUCAACACAGCGUGGCAAAGUGGCAGUGGCUAGACUGCCUUUCUGGAUUCCUCGUCACUCAGCAGGGCAUCUCUGAGAGAAAUGCC | 0.06 |
| UACGUAGGUGGUUUUCCCCUGAUAGUGCUAAGGGGGCCUGGAAGUUUGGACUGGGCAGAGCUCAACACAGCGUGGCAAAGUGGUUGUGGCUAGACUGCCACUCUGGAUUCCUCGUCACUCAGCAGGGCAUCUCUGAGAGAAAUGCC | 0.07 |
| UACGUAGGUGGUUUUCCCCUGAUAGUGCUAAGGGGGCCUGGAAGUUUGGACUGGGCAGAGCUCAACACAGCGUGGCAAAGUGGCAGUGGCUAGACUGCCUCUCUGGAUUCCUCGUCACUCAGCAGUGCAUCUCUGAGAGAAAUGCC | 0.07 |
| UACGUAGGUGGUUUUCCCCUGAUAGUGCUAAGGGGGCCUGGAAGUUUGGACUGGGCAGAGCUCAACACAGCGUGGCAAAGUGGCAGUGGCUAGACUGCCUCUCUGGGUUCCUCGUCACUCAGCAGGGCAUCUCUGAGAGAAAUGCC | 0.08 |
| UACGUAGGUGGUUUUCCCCUGAUAGUGCUAAGGGGGCCUGGAAGUUUGGACUGGGCAGAGCUCAACACAGCGUGGCAAAGUGGUUGUGGCUAGACUGCCUCUCUGGAUCCCUCGUCACUCAGCAGGGCAUCUCUGAGAGAAAUGCC | 0.1 |
| UACGUAGGUGGUUUUCCCCUGAUAGUGCUAAGGGGGCCUGGAAGUUUGGACUGGGCAGAGCUCAACACAGCGUGGCAAAGUGGCAGUGGCUAGACUGCCUCUCUGGAUUCCUCGUCACUUAGCAGGGCAUCUCUGAGAGAAAUGCC | 0.2 |
| UACGUAGGUGGUUUUCCCCUGAUAGUGCUAAGGGGGCCUGGAAGUUUGGACUGGGCAGAGCUCAACACAGCGUGGCAAAGUGGCAGUGGCUAGACUGCCUCUCUGGAUUCCUCGUCACUAAGCAGGGCAUCUCUGAGAGAAAUGCC | 0.07 |
| UACGUAGGUGGUUUUCCCCUGAUAGUGCUAAGGGGGCCUGGAAGUUUGGACUGGGCAGAGCUCAACACAGCGUGGCAAAGUGGUUGUGGCUAGACUGCCUCUCUGGAUUCCUCGUCACCCAGCAGGGCAUCUCUGAGAGAAAUGCC | 0.12 |
| UACGUAGGUGGUUUUCCCCUGAUAGUGCUAAGGGGGCCUGGAAGUUUGGACUGGGCAGAGCUCAACACAGCGUGGCAAAGUGGUUGUGGCUAGACCGCCUCUCUGGAUUCCUCGUCACUCAGCAGGGCAUCUCUGAGAGAAAUGCC | 0.04 |
| UACGUAGGUGGUUUUCCCCUGAUAGUGCUAAGGGGGCCUGGAAGUUUGGACUGGGCAGAGCUCAACACAGCGUGGCAAAGUGGCAGUGGCUAGACUGCCUCUCUGGAUUCCUCGUCACUCAGCAGGGCAUCUCUGAGAGAGAUGCC | 0.07 |
| UACGUAGGUGGUUUUCCCCUGAUAGUGCUAAGGGGGCCUGGAAGUUUGGACUGGGCAGAGCUCAACACAGCGUGGCAAAGUGGCAGUGGCUAGACUGCCUCUCUGGAUUCCUCGUCACUCAGCAGGGCAUCUCUGAGAGAUAUGCC | 0.07 |
| UACGUAGGUGGUUUUCCCCUGAUAGUGCUAAGGGGGCCUGGAAGUUUGGACUGGGCAGAGCUCAACACAGCGUGGCAAAGUGGCAGUGGCUAGACUGCCUCUCUGGAUUCCUCGUCACUCAGCUGGGCAUCUCUGAGAGAAAUGCC | 0.08 |
| UACGUAGGUGGUUUUCCCCUGAUAGUGCUAAGGGGGCCUGGAAGUUUGGACUGGGCAGAGCUCAACACAGCGUGGCAAAGUGGUCGUGGCUAGACUGCCUCUCUGGAUUCCUCGUCACUCAGCAGGGCAUCUCUGAGAGAAAUGCC | 0 |

| Variant | self-cleavage |
| --- | --- |
| UACGUAGGUGGUUUUCCCCUGAUAGUGCUAAGGGGGCCUGGAAGUUUGGACUGGGCAGAGCUCAACACAGCGUGGCAAAGUGGCAGUGGCUAGACUGCCUCUCUGGAUUCCUCGUCACUCAGCAGGGCAUCUCUGGGAGAAAUGCC | 0.11 |
| UACGUAGGUGGUUUUCCCCUGAUAGUGCUAAGGGGGCCUGGAAGUUUGGACUGGGCAGAGCUCAACACAGCGUGGCAAAGUGGCAGUGGCUAAACUGCCUCUCUGGAUUCCUCGUCACUCAGCAGGGCAUCUCUGAGAGAAAUGCC | 0.05 |
| UACGUAGGUGGUUUUCCCCUGAUAGUGCUAAGGGGGCCUGGAAGUUUGGACUGGGCAGAGCUCAACACAGCGUGGCAAAGUGGCAGUGGCUAUACUGCCUCUCUGGAUUCCUCGUCACUCAGCAGGGCAUCUCUGAGAGAAAUGCC | 0.08 |
| UACGUAGGUGGUUUUCCCCUGAUAGUGCUAAGGGGGCCUGGAAGUUUGGACUGGGCAGAGCUCAACACAGCGUGGCAAAGUGGUUGUGGCUAGACUGCCUCCCUGGAUUCCUCGUCACUCAGCAGGGCAUCUCUGAGAGAAAUGCC | 0.16 |
| UACGUAGGUGGUUUUCCCCUGAUAGUGCUAAGGGGGCCUGGAAGUUUGGACUGGGCAGAGCUCAACACAGCGUGGCAAAGUGGCAGUGGCUAGACUGCCUCUCUGGAUUCCUCGUCACUCAGCAGGGCAUCUCUGAGAGUAAUGCC | 0.09 |
| UACGUAGGUGGUUUUCCCCUGAUAGUGCUAAGGGGGCCUGGAAGUUUGGACUGGGCAGAGCUCAACACAGCGUGGCAAAGUGGCAGUGGCUAGACUGCCUCUCUGGAUUCCUCGUCACUCAGCAGGGCAUCUCUGAGAGGAAUGCC | 0.08 |
| UACGUAGGUGGUUUUCCCCUGAUAGUGCUAAGGGGGCCUGGAAGUUUGGACUGGGCAGAGCUCAACACAGCGUGGCAAAGUGGUUGUGGCUAGACUGCCUCUCUGGAUUCCUCUUCACUCAGCAGGGCAUCUCUGAGAGAAAUGCC | 0.15 |
| UACGUAGGUGGUUUUCCCCUGAUAGUGCUAAGGGGGCCUGGAAGUUUGGACUGGGCAGAGCUCAACACAGCGUGGCAAAGUGGCAGUGGCUAGACUGCCUCUCUGGAUUCCUCGUCGCUCAGCAGGGCAUCUCUGAGAGAAAUGCC | 0.15 |
| UACGUAGGUGGUUUUCCCCUGAUAGUGCUAAGGGGGCCUGGAAGUUUGGACUGGGCAGAGCUCAACACAGCGUGGCAAAGUGGCAGUGGCUAGACUGCCUCUCUGGAUUCCUCGUCCCUCAGCAGGGCAUCUCUGAGAGAAAUGCC | 0.07 |
| UACGUAGGUGGUUUUCCCCUGAUAGUGCUAAGGGGGCCUGGAAGUUUGGACUGGGCAGAGCUCAACACAGCGUGGCAAAGUGGCAGUGGCUAGACUGCCUCUCUGGAUUCCUCGUCUCUCAGCAGGGCAUCUCUGAGAGAAAUGCC | 0.09 |
| UACGUAGGUGGUUUUCCCCUGAUAGUGCUAAGGGGGCCUGGAAGUUUGGACUGGGCAGAGCUCAACACAGCGUGGCAAAGUGGCAGUGGCUAGGCUGCCUCUCUGGAUUCCUCGUCACUCAGCAGGGCAUCUCUGAGAGAAAUGCC | 0.15 |
| UACGUAGGUGGUUUUCCCCUGAUAGUGCUAAGGGGGCCUGGAAGUUUGGACUGGGCAGAGCUCAACACAGCGUGGCAAAGUGGCAGUGGCUUGACUGCCUCUCUGGAUUCCUCGUCACUCAGCAGGGCAUCUCUGAGAGAAAUGCC | 0.11 |
| UACGUAGGUGGUUUUCCCCUGAUAGUGCUAAGGGGGCCUGGAAGUUUGGACUGGGCAGAGCUCAACACAGCGUGGCAAAGUGGCAGUGGCUGGACUGCCUCUCUGGAUUCCUCGUCACUCAGCAGGGCAUCUCUGAGAGAAAUGCC | 0.13 |
| UACGUAGGUGGUUUUCCCCUGAUAGUGCUAAGGGGGCCUGGAAGUUUGGACUGGGCAGAGCUCAACACAGCGUGGCAAAGUGGCAGUGGCCAGACUGCCUCUCUGGAUUCCUCGUCACUCAGCAGGGCAUCUCUGAGAGAAAUGCC | 0.04 |
| UACGUAGGUGGUUUUCCCCUGAUAGUGCUAAGGGGGCCUGGAAGUUUGGACUGGGCAGAGCUCAACACAGCGUGGCAAAGUGGCAGUGGCAAGACUGCCUCUCUGGAUUCCUCGUCACUCAGCAGGGCAUCUCUGAGAGAAAUGCC | 0.11 |
| UACGUAGGUGGUUUUCCCCUGAUAGUGCUAAGGGGGCCUGGAAGUUUGGACUGGGCAGAGCUCAACACAGCGUGGCAAAGUGGCAGUGGCUAGACUGCCUCUCUGGAUUCCUCGUCACUCAGCAGGGGAUCUCUGAGAGAAAUGCC | 0.06 |
| UACGUAGGUGGUUUUCCCCUGAUAGUGCUAAGGGGGCCUGGAAGUUUGGACUGGGCAGAGCUCAACACAGCGUGGCAAAGUGGUUGUGGCUAGACUGCCUCUCUGGACUCCUCGUCACUCAGCAGGGCAUCUCUGAGAGAAAUGCC | 0.15 |
| UACGUAGGUGGUUUUCCCCUGAUAGUGCUAAGGGGGCCUGGAAGUUUGGACUGGGCAGAGCUCAACACAGCGUGGCAAAGUGGCAGUGGCUAGACUGCCUCUCUGGAUUCCUCGUCACUCAGCAGGGCAUCUCUGAGAGAAGUGCC | 0.08 |
| UACGUAGGUGGUUUUCCCCUGAUAGUGCUAAGGGGGCCUGGAAGUUUGGACUGGGCAGAGCUCAACACAGCGUGGCAAAGUGGCAGUGGCUAGACAGCCUCUCUGGAUUCCUCGUCACUCAGCAGGGCAUCUCUGAGAGAAAUGCC | 0.12 |
